Results published in paper PMC5027573, “Structural Analysis of the Hg(II)-Regulatory Protein Tn501 MerR from Pseudomonas aeruginosa” (Scientific Reports, 2016).

Target: the molecule itself
Assay: crystal structure; Hg(II)-bound truncated MerR (equimolar HgCl2); sitting-drop vapor diffusion at 16 °C, 0.1 M KCl, 0.01 M MgCl2, 0.1 M Tris pH 8.5, 30% PEG200; space group P3(1)21, one dimer in the asymmetric unit; Hg SAD, 2.8 Å

B1: C-terminal truncated Tn501 MerR (MerRTC10), mercury(II)-bound (domain or fragment, Pseudomonas aeruginosa, UniProt P0A183 1-134, looked up)
chain: MENNLENLTIGVFAKAAGVNVETIRFYQRKGLLLEPDKPYGSIRRYGEADVTRVRFVKSAQRLGFSLDEIAELLRLEDGTHCEEASSLAEHKLKDVREKMADLARMEAVLSELVCACHARRGNVSCPLIASLQG
notes: Mercuric resistance operon regulatory protein MerR of transposon Tn501, Pseudomonas aeruginosa; the last ten C-terminal residues were truncated; synthesized and codon-optimized merR gene; also called Hg2+-MerR; C-terminally truncated Tn501 MerR; source: E. coli BL21 (DE3), pET-30a, purified (HiTrap Phenyl FF, HisTrap HF, Superdex200 gel filtration)
  stoichiometry N: 2
